Measurements from publication PMC11334520, “In vitro higher-order oligomeric assembly of the respiratory syncytial virus M2-1 protein with longer RNAs”.

How the values were obtained:
Conditions in all cases: protein: recombinant; tags: N-terminal His6-GFP, cleaved with TEV; chain copies: 4
M2-1 [1] = target: T1, M2-1 (human respiratory syncytial virus …, UniProt P04545 1-194); assay: SEC; excess RNA; EMSA: 20 mM HEPES pH 7.5, 200 mM NaCl, 2 mM TCEP, 5% glycerol, room temperature 1 h, 4% native PAGE, SYBR Gold; SEC: Superdex 200 Increase 10/300, buffer not given
T1 sequence: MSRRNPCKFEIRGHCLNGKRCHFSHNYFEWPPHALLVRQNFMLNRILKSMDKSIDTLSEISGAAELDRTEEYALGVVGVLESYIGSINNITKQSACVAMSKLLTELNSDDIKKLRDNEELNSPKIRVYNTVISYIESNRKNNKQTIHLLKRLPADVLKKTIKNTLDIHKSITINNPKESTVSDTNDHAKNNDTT

M2-1 [2] = target: T1, M2-1; assay: EMSA; 0.5 uM RNA; Hill 0.95; EMSA: 20 mM HEPES pH 7.5, 200 mM NaCl, 2 mM TCEP, 5% glycerol, room temperature 1 h, 4% native PAGE, SYBR Gold; SEC: Superdex 200 Increase 10/300, buffer not given
M2-1 [3] = target: T1, M2-1; assay: EMSA; 0.5 uM RNA; Hill 5.17; EMSA: 20 mM HEPES pH 7.5, 200 mM NaCl, 2 mM TCEP, 5% glycerol, room temperature 1 h, 4% native PAGE, SYBR Gold; SEC: Superdex 200 Increase 10/300, buffer not given
M2-1 [4] = target: T1, M2-1; assay: EMSA; 0.5 uM RNA; Hill 8.10; EMSA: 20 mM HEPES pH 7.5, 200 mM NaCl, 2 mM TCEP, 5% glycerol, room temperature 1 h, 4% native PAGE, SYBR Gold; SEC: Superdex 200 Increase 10/300, buffer not given
M2-1 [5] = target: T1, M2-1; assay: EMSA; 0.5 uM RNA; Hill 0.83; EMSA: 20 mM HEPES pH 7.5, 200 mM NaCl, 2 mM TCEP, 5% glycerol, room temperature 1 h, 4% native PAGE, SYBR Gold; SEC: Superdex 200 Increase 10/300, buffer not given

AGUUAAUUAAAAAUAG (ssRNA) [SH16(+)]: binds (M2-1 [1]).

AAAAAAAAAAAAAA (ssRNA) [Poly14A] showed a Kd (M2-1 [2]) of 580 nM.

UUUUUUUUUUUUUUUUUUUUU (ssRNA) [Poly21U]: binds (M2-1 [1]).

CCCCCCCCCCCCCCCC (ssRNA) [Poly16C]: no binding (M2-1 [1]).

AAAAAAAAAAAAAAAAAAA (ssRNA) [Poly19A] gave a Kd (M2-1 [3]) of 2720 nM.

UUUUUUUUUUUUUUUUUUUUUUUUUUUU (ssRNA) [Poly28U]: binds (M2-1 [1]).

UUUUUUUUUUUUUUUU (ssRNA) [Poly16U]: no binding (M2-1 [1]).

CUAUUUUUAAUUAACU (ssRNA) [SH16(-)]: no binding (M2-1 [1]).

AAAAAAAAAAAAAAAA (ssRNA) [Poly16A]: binds (M2-1 [1]).

With AAAAAAAAAAAAAAAAAAAAAAAA (ssRNA) [Poly24A] the Kd (M2-1 [4]) was 4440 nM.

With AAAAAAAAA (ssRNA) [Poly9A] the Kd (M2-1 [5]) was 1940 nM.
